Experimental data published in the DeepSol protein solubility set.

Assay: soluble on expression in E. coli; label from the status in PepcDB or PDB records

Row | Sequence | soluble on expression in E. coli
1 | MAICPELAQTDKSALANLSDETETLKNFTDEVQTSSSFSSSGGRQSSPLTSGSKLEREKQTPSLEQGDTQSELLDYKNYEKKLSKKWINYLKLKDSNFERHQPDTKLPTEITRVSDEELNALQSYCTMKINLIHRRGDSKKKTSSRHKKLHLGLDVEASERDAFSCTVPDELLNRIYFKNMRTTPKQEAAAKQHISYQCPYCNRKRAELALSAFLKQKKTLLESFLLQERIDEHLHTKDFLTRIGEAHQDFPRLSDDPRIIWKRLTEKSHIRYSGFERSETEQKMQRDGNSACHLPFSLPFLKRLTLIKPELVIVNDNV | not soluble
2 | AHHHHHHGSKYDVVVVGSGVAGPIVARDVAKAGFSVLLVDKKPAIGTPKQCAEGINVNVFKEFDIPYDKRFINREIYGARIYSPSGYTAELRYDKVSGVILERKVFDKMLAYYAAKAGADVWARTEVIDLLRKEGKIMGVKAKHEGELVEIEAKIIVAADGVESTVARLAGINTYAPPHEFDSAYEYEMIIEGYDPDLIHLWFGNEIAPRGYVWVFPKDEDRANVGIGINSDNEKTAKYYLDKWLKENNIPTKKILEINVGLVPVGGFVRELVKENVAVVGDAARQVNPVHGGGMYEAMKAANILAKWIVKALEEENLELLKNYTKEWWEVEGPKMERLLKLRRAMEKLTDEDIDVFVQLLGGTDLEKLAGGNYFEVVKALMKHPKVLMSKRRLEILKALL | soluble
3 | MGHHHHHHSHMSGSAMQEGLSPNHLKKAKLMFFYTRYPSSNMLKTYFSDVKFNRCITSQLIKWFSNFREFYYIQMEKYARQAINDGVTSTEELSITRDCELYRALNMHYNKANDFEVPERFLEVAQITLREFFNAIIAGKDVDPSWKKAIYKVICKLDSEVPEIFKSPNCLQELLHE | soluble
4 | SNAAQISDGKQYITLDKPVAGEPQVLEFFSFYCPHCYQFEEVLHVSDNVKKKLPEGTKMTKYHVEFLGPLGKELTQAWAVAMALGVEDKVTVPLFEAVQKTQTVQSAADIRKVFVDAGVKGEDYDAAWNSFVVKSLVAQQEKAAADLQLQGVPAMFVNGKYQINPQGMDTSSMDVFVQQYADTVKYLVDKK | soluble
5 | MAHHHHHHMQSDARELNPGRADFWEHFYDQEDGRLRQKELHHRKAHEIVERGSLMNHYEWFMQYAMYEAALKACLRAVPTVLSKDGATRILHMGCGNSDFCDHVEGLLSDLHPVPSSSSRASEVLNVDICESIVAHLALHFPSRLYAVGNCCDLHVSSSPSMPFSSNAAWYSRDPALRLRKVLQSSVDVVFDKGTADALLSSFAGEYNPNMEAYMGEALKVLRPGGLLFLISINSEDVLSPYALSADDGLKSFHLAYTDVIELGAHDLRHLRVETLGSRYSCYGYAVVASAVAE | soluble
6 | NNDITAENNNIYKAAKDVTTSLSKVLKNIN | soluble
7 | MSKKLKPFEILEDSCASVCIWLNGEPTAISNRAENLWNKAKYRVATDGAVNEILKRKSFVEWPHIICGDFDSINKQIDTKNAKVVHLPDQDYTDLSKSVQWCLEQKTLTSWEFENIVVLGGLNGRFDHTMSTLSSLIRFVDSQTPVIVLDSRNLVLAVPTGDSNLDVNLEMTTKMCGIIPIVQKETIKTLLLNLENLSARRMKLPRAKYF | not soluble
8 | MLCCPDPRRRGQHNNRRRNAMPKLHESRIHDLRPTQLTVGMIEVQAKKTHLAAMAPADQQAFMQAHPIPAVLGPGGQLYITDHHHLGRAALDAGVITGYFMVEADLSQHSLDDFWKAMDQNLWVHPLDEHGVRHYYASIPKHLEKLVDDPYRSLAGYVRDAGGYDKTPTAFAEFVWADFFRRSIPIEDLLADFQAAVHAALPLAKSKFAKALPGYNGKLEHHHHHH | not soluble
9 | MTKNTSYHYSIIIPHKNTPRLLERCLCSIPTWDEIQIIIIDDNSNSESVDFSHFPGNGRKNTEVLFTKEGKGAGYARNIGLSHARGKWIIFADADDFFTADCFTILNEYMDSPHEVIYFNVRFVMSDNPSQESRRGTYYTNFFNDVNPENKLRYQSQVPWGKMIRRSFLSTFHIQFDETRIANDVYFSCLVGIYAPKATTDRRIIYYCTESGQSLAMSKQDRESLIIRFNASMKCNRLLRQEKIHYYLSPLPWCIPSAKTKEWLPAKYFFEYLFFFRLQAFKELYYAFSAILSHMNEPATKETDNQCNKKTTNLRE | not soluble
10 | MSLAQTSDWDSVVAQAKKEGSVTFNVWYLQPQWRSFVKDFEQKYDIKVRIPEGSIDGNMNKLLAETRREQGKIDVIALSIAQLPITMGAKSLAKVDDLPGYQDAYHQLQNVDTQGYAVAFWGNQTGFAYDPQQMGDRPLPQTMEELQRFIDANPKRFGYNDPNNGGAGEAFIQRIVTTLSGDFSSESDTVDPTVIKDWQKGWQWFASNNNNITRTASGADSLTRLNDGELMLTPAWEDHLSGLQKTGAITSRLKFYVPEFGMPGGGNIASIAANSPHPAASRVFLNWLIQADTQKALNEAFGSTPMNKQLNADVKQPDTPVQFYGKAYSMQMKKEFARQVMTREGHHHHHH | soluble
11 | MGSSHHHHHHSSGLVPRGSHQPALAAEPAQLRIGYQKAVSSLVLAKQHRLLEQRFPRTKITWVEFPAGPQLLEALNVGSIDLGGAGDIPPLFAQAAGADLLYVGWVPPTPKAETILVPSKSALRTVADLKGKRIAFQKGSSAHNLLLRVLAKSGLSMRDITPLYLSPANARAAFAAGQVDAWAIWDPWYSALTLDGSARLLANGEGLGLTGGFFLSSRRYATAWGPFVQQVMGTLNQADGLLERDRAGSIKTLAQVSGLPPAVVERTLAHRPPASVQPLSAQVIKAQQATADLFYAQRLLPKRVLVAPAVWRAPDAGTAQAVSK | soluble
12 | GPGSMTTSASLFKKFTLENVAQIASSSHKEQKEVREELAEQYPALEAYWEEILPKKSDIFIIRCQGQVHCITLVSSQPEVLFFNHHGGPYLPHLKLLHKYPFMLTRHQVDIGGCRYVISGANVMCQGLTSAGGIVADGTEEGEVVAVYVEGKEHAVAVGTMLMSSDEIKEKNKGPCIENIHHLGDGLWMNPVLSASHISV | soluble
13 | MGSDKIHHHHHHMEMDERFKDKWYLVKYKFFSNPFYKDFDVYDSSNNVVFTARMNALNPVTRDIVVYEVNKARSEILLISGKHFIRWPNNFEMTSIATREKIGTFRNGPAGWAVLDEYGRQVAILKRIEDPSGAIMYQIRMDSTSVCEYRFINIITPVIMIDFPDESIFSKKMGIGLALVLGYQSVAFNYTYQGW | not soluble
14 | MTEPKKEIIEDENHGISKKIPTDPRQYEKVTEGCRLLVMMASQEEERWAEVISRCRAANGSIKFYVHYIDCNRRLDEWVQSDRLNLASCELPKKGGKKGAHLREENRDSNENEGKKSGRKRKIPLLPMDDLKAESVDPLQAISTMTSGSTPSLRGSMSMVGHSEDAMTRIRNVECIELGRSRIQPWYFAPYPQQLTSLDCIYICEFCLKYLKSKTCLKRHMEKCAMCHPPGNQIYSHDKLSFFEIDGRKNKSYAQNLCLLAKLFLDHKTLYYDTDPFLFYVLTEEDEKGHHIVGYFSKEKESAEEYNVACILVLPPFQKKGYGSLLIEFSYELSKIEQKTGSPEKPLSDLGLLSYRSYWSMAIMKELFAFKRRHPGEDITVQDISQSTSIKREDVVSTLQQLDLYKYYKGSYIIVISDEKRQVYEKRIEAAKKKTRINPAALQWRPKEYGKKRAQIMF | not soluble
15 | MIAKEKILKGFETAEARWARFGPYYAMFPLEFAFDVVEKYSKNGDYIIDPFAGRCSSIYAGGVLGRNSLGLEINPVGWLYGTVKLHPAEKEEVIDRLLEIYSKRNYYNRAIQKMPEFYRICYCDEVLKFLLAARTHLDWRNNKVDATLMSILLIYLHAKIGEGLSNQMRMTKSMGMNYSVQWWKKNNMTTPPEINPCDFILKKIEWRYEKGKPKVSESAVVFGDSSNKLISIAERAINNDIKFSLLFTSPPYYSITDYHADQWLRLWLLGGSENPQSLKDKHKGRFVNKQEYYDLLDNVFGLCAKMMKRESTVYVRTDKREFTFNSTLEILKRHFPNHSVKIVEKPLTKDTKTQTKLFGDKTMKPGEVDIIMSRK | not soluble
16 | MGSDKIHHHHHHVLTNQTGYEYHKCTDLTAMIKDYIDNWQKNNAHFDGIYSGFMTGSKQIELFMDFLDVFYEKNTMLLVDPVMGDDGRTYGIYSAALLDGMKALSRKADVITPNLTEACLLADYDIEKVYSDTRKDVLLPIAAEISEKLRCLSGKNQDVIITGIKCRDDKSPFIYNLVTTANGTTTHRSHFFDVSFSGTGDLFASVICGSRLNGFSTEEAAERAGKFLYDSIADTMNDDTAPNDGVNFEKFLRELM | not soluble
17 | MSLDTSAPQKYRRILLKVSGEVLMGDTPYGIDTNTVQSVAEDVAEIVKSGVELCLVIGGGNIFRGMAGAAKGMERSSADYMGMLATVMNALAMQDALERIGVETRVQSAIPMATVCEPYIRRRAQRHLEKGRVVIFAAGTGNPFFTTDTAAALRAAEMQCDALFKGTSVDGVYTADPKKDPTAQRYDRLSYMDVLAKDLRVMDASAVALMRDSNIPIVVFSIKGRGNLLTVLRGEGTHTVVAEDEGHHHHHH | soluble
18 | MAHHHHHHMKSSSKDLCKYFCRKCNNFIYYNEACELIYKKIYPDYYKIYYNKYEFDKKTKGKKEVNPKQYDNLYRQLYNNGLCGVNKQRNDFLNKDNINNILLFLNKGSIQCNKCNHIHMWYMK | soluble
19 | SHPGIDSMSSNINCENNPFSFYGNPHKSVIIHGKEGTELLKEKGEDCKTFENSQQYFLWCCVQQQMYHYQLLSTAFASYGFEPPRIPGAFPHHIPPIFNGSMKCLRDREVFNQSGFLYVNVSPDTYQETRQEAPVEQRNQWSEKSKTTSKKSICKVLFECTNSSLLENAENRSIFSKQGSGSHVGENSKNPSEDSGQSGRLSQNATAEHNVLEKHLQEEYQMAKNTVNESFDSLKECSAASVIKGSYLLSQVVHIPEDAIEPEIPPDLQGPGGHVFLRMLSRSWRQYKRALEHNE | soluble
20 | MGSDKIHHHHHHMSRLVRSATLSRYTEVARSVGLDPLRILAEVGLPRTCLDAGDNLVSANAVCRLLEMSAADSDAEDFGLRMGEGRQLSVLGPLGMAVRDSPTLRDALGAMVRYITLHSEALFLGVEEREGALVIRVSLIVEHAGSTRQADEMVVVSLYRMLQELIGPGWRARRICLSHEAPRSLASHLRVFGRAVDFGCDFNGIVCELKDMDAMPRAARPELAQYAHAYLDSLSARATLSMTENVRRMVLSLLPSGNCSVERVASQLGVDRRTVHRKLLQEGASFSSILDEVRATLALQYLRHLERPVSYVAVLLGFSMQSAFSRWFRDHFGCSPSAWRSEGMQPARPVPRQPLLAASPEQRM | not soluble
21 | MGSDKIHHHHHHMLTSDPSESTAHLQRTISNLSARNAKLAELLKASRDKLSILQDQLEDLAAPPSTYGTFLEFSGGRETAEVFTAGRHMRLRISPDVEKAELVPGVQVRLGEASQVVEVCDISTTGQLATLVELLADNRGLICDHTGEERVVKLAAALTEGVDKLPKAGDTLLVDPRAGYAFEVIPKTEVSTLALEEVPDVTYADIGGLNSQIELIHDAVELPFTQPDLYRAYDLKPPKGVLLYGPPGCGKTLIAKAVANSLAQRIGAGNRSYFINVKGPELLNKYVGETERRIRLIFERARELAEEGRPVIVFFDEMESIFRTRGSGVSSDMETTVVPQLLTELDGVESLSNVIIIGATNREELIDPAILRPGRLDVKIRVERPDKQAARDVFARHLKQNIPTAEPIDSLINNAVDHLYADNPYVELSLIDGSTEILHYRDFVSGAMIANIVDRAKKCAIKDHIAGRHSGVASEHLIAAINAENHESEDLPNTSNPDDWSRIIGRHGLRVAHARVLGGQR | not soluble
